One block for each binder: values may come before it.
Target: T1, GST-tagged PAD1 (human, UniProt Q9ULC6 1-663)
T1 construct: peptidylarginine deiminase 1 (PAD1), recombinant human; also called GST-PAD1; recombinant human PAD1; source: recombinant
T1 sequence (looked up): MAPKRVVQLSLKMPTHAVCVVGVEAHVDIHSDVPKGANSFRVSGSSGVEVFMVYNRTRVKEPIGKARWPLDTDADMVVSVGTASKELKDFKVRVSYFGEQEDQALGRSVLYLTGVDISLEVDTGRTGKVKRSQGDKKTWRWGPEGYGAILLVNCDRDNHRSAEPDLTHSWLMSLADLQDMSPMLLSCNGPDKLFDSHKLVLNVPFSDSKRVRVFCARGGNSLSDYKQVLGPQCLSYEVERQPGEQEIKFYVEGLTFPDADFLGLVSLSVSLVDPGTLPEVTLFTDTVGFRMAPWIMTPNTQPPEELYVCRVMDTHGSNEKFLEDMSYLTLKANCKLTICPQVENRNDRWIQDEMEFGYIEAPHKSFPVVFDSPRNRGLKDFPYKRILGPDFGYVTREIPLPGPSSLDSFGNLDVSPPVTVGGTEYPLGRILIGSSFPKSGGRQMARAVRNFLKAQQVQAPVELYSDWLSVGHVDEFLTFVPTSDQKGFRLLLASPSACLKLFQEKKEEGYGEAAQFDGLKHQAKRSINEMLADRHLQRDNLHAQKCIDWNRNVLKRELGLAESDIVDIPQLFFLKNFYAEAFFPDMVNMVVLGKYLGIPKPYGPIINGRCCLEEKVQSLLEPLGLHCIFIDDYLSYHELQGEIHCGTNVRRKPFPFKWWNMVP
Experiment: pull-down; GST pull-down: purified His-tagged AKT2 (full length or truncated) incubated with GST-tagged PAD1 or GST alone
Details: both partners purified

binding result: binds
B1: His-tagged full-length AKT2 (enzyme, UniProt P31751 1-481, looked up)
chain: MNEVSVIKEGWLHKRGEYIKTWRPRYFLLKSDGSFIGYKERPEAPDQTLPPLNNFSVAECQLMKTERPRPNTFVIRCLQWTTVIERTFHVDSPDEREEWMRAIQMVANSLKQRAPGEDPMDYKCGSPSDSSTTEEMEVAVSKARAKVTMNDFDYLKLLGKGTFGKVILVREKATGRYYAMKILRKEVIIAKDEVAHTVTESRVLQNTRHPFLTALKYAFQTHDRLCFVMEYANGGELFFHLSRERVFTEERARFYGAEIVSALEYLHSRDVVYRDIKLENLMLDKDGHIKITDFGLCKEGISDGATMKTFCGTPEYLAPEVLEDNDYGRAVDWWGLGVVMYEMMCGRLPFYNQDHERLFELILMEEIRFPRTLSPEAKSLLAGLLKKDPKQRLGGGPSDAKEVMEHRFFLSINWQDVVQKKLLPPFKPQVTSEVDTRYFDDEFTAQSITITPPDRYDSLGLLELDQRTHFPQFSYSASIRE
notes: AKT2, full length; whether 'human' also covers AKT2 is not clear; also called His-AKT2 (full length); source: purified

binding result: binds
B2: His-AKT2 (kinase domain) (domain or fragment, UniProt P31751 152-481, looked up)
chain: FDYLKLLGKGTFGKVILVREKATGRYYAMKILRKEVIIAKDEVAHTVTESRVLQNTRHPFLTALKYAFQTHDRLCFVMEYANGGELFFHLSRERVFTEERARFYGAEIVSALEYLHSRDVVYRDIKLENLMLDKDGHIKITDFGLCKEGISDGATMKTFCGTPEYLAPEVLEDNDYGRAVDWWGLGVVMYEMMCGRLPFYNQDHERLFELILMEEIRFPRTLSPEAKSLLAGLLKKDPKQRLGGGPSDAKEVMEHRFFLSINWQDVVQKKLLPPFKPQVTSEVDTRYFDDEFTAQSITITPPDRYDSLGLLELDQRTHFPQFSYSASIRE
notes: AKT2 residues 152-481, the truncated variant that the text calls the kinase domain; also called His-tagged AKT2 (152–481 aa); source: purified

From PMC12533369, “Citrullination of AKT2 Catalyzed by PAD1 Facilitates the Maintenance of Stemness Characteristics of Ovarian Cancer Stem‐Like Cells in Ovarian Cancer” (Advanced Science, 2025)
